T1: GST-tagged Pediculus humanus PINK1 (residues 128–575) (Pediculus humanus) (UniProt E0W1I1)
T1 sequence: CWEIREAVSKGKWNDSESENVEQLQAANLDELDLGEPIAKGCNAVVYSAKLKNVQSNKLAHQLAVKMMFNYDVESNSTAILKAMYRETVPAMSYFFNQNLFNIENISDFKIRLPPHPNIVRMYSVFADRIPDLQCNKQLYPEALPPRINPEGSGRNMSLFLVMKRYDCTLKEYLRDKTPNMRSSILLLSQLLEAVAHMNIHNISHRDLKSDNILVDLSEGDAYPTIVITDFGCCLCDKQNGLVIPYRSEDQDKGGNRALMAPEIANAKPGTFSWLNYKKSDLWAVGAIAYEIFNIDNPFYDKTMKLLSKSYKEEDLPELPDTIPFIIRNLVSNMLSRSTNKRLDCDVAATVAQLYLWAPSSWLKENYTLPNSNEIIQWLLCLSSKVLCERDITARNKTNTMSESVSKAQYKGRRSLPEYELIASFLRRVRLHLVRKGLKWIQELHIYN


Key:
[1] = molecular target: T1, GST-tagged Pediculus humanus PINK1 (residues 128–575) (Pediculus humanus)
[2] = molecular target: T1, GST-tagged Pediculus humanus PINK1 (residues 128–575) (Pediculus humanus); remark: listed apart in the source
[3] = molecular target: T2, C-terminal portion of ataxin-3 (residues 194–361) containing three UIM regions (UniProt P54252 194-361); assay: NMR titration; unlabelled ataxin^194–361 titrated into 15N-labelled Ubl variants, 1H-15N HSQC chemical shift changes, global fit for a single Kd (apparent); 150 uM Ubl domain (75 uM pUbl^P37L); 25 mM HEPES, 100 mM NaCl, 0.5 mM TCEP, pH 7.0, 25 °C; conditions: both partners purified
T2 construct: Unlabelled in the NMR titrations; also called ataxin^194–361; tandem UIM region from ataxin-3; source: E. coli BL21(DE3), purified (Ni-NTA, TEV cleavage, second Ni-NTA)
T2 sequence (P54252 194-361): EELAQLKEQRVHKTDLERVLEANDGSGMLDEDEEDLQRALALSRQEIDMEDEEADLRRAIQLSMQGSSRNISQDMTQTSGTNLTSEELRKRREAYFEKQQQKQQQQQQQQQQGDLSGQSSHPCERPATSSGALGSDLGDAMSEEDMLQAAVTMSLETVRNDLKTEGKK

Molecule	Kd [3] [µM]	further results
full-length parkin (1–465) G12R (from UniProt O60260 1-465) (enzyme)		rate of Ser-65 phosphorylation by PINK1 (time course, pSer-65 antibody Western blot), against WT full-length parkin [1]: 40%
parkin Ubl domain (1–76) I44A (from UniProt O60260 1-76) (domain or fragment)		phosphorylation by PINK1 against the WT Ubl domain (data not shown) [2]: 20 fold
parkin Ubl domain (1–76), wild type (domain or fragment, human, UniProt O60260 1-76, looked up, parkin, human, ubiquitin-like (Ubl) domain, residues 1-76; 15N-labelled for the NMR titrations; also called WT Ubl domain; source: E. coli BL21(DE3), purified (Ni-NTA, Ulp1 cleavage, Superdex75)) MIVFVRFNSSHGFPVEVDSDTSIFQLKEVVAKRQGVPADQLRVIFAGKELRNDWTVQNCDLDQQSIVHIVQRPWRK	187 ± 19	
parkin Ubl domain (1–76) S65E, phosphomimetic (domain or fragment, human, UniProt O60260 1-76, looked up, parkin, human, ubiquitin-like (Ubl) domain, residues 1-76, S65E; 15N-labelled for the NMR titrations; also called Ubl^S65E; source: E. coli BL21(DE3), purified (Ni-NTA, Ulp1 cleavage, Superdex75)) MIVFVRFNSSHGFPVEVDSDTSIFQLKEVVAKRQGVPADQLRVIFAGKELRNDWTVQNCDLDQQEIVHIVQRPWRK	227 ± 26	
parkin Ubl domain (1–76) P37L (domain or fragment, human, UniProt O60260 1-76, looked up, parkin, human, ubiquitin-like (Ubl) domain, residues 1-76, ARJP substitution P37L; 15N-labelled for the NMR titrations; Disease-associated (ARJP) substitution; also called Ubl^P37L; source: E. coli BL21(DE3), purified (Ni-NTA, Ulp1 cleavage, Superdex75)) MIVFVRFNSSHGFPVEVDSDTSIFQLKEVVAKRQGVLADQLRVIFAGKELRNDWTVQNCDLDQQSIVHIVQRPWRK	61 ± 2	
parkin Ser-65–phosphorylated Ubl domain (1–76) (domain or fragment, human, UniProt O60260 1-76, looked up, phosphoserine at 65, parkin, human, ubiquitin-like (Ubl) domain, residues 1-76, phosphorylated at Ser-65; 15N-labelled for the NMR titrations; the preparative phosphorylation is not described; also called pUbl; pSer-65 Ubl; source: E. coli BL21(DE3), purified (Ni-NTA, Ulp1 cleavage, Superdex75); phosphorylated at Ser-65) MIVFVRFNSSHGFPVEVDSDTSIFQLKEVVAKRQGVPADQLRVIFAGKELRNDWTVQNCDLDQQSIVHIVQRPWRK	652 ± 175	
parkin Ser-65–phosphorylated Ubl domain (1–76) P37L (domain or fragment, human, UniProt O60260 1-76, looked up, phosphoserine at 65, parkin, human, ubiquitin-like (Ubl) domain, residues 1-76, ARJP substitution P37L, phosphorylated at Ser-65; 15N-labelled; used at 75 uM in the NMR titration; also called pUbl^P37L; pP37L; source: E. coli BL21(DE3), purified (Ni-NTA, Ulp1 cleavage, Superdex75); phosphorylated at Ser-65) MIVFVRFNSSHGFPVEVDSDTSIFQLKEVVAKRQGVLADQLRVIFAGKELRNDWTVQNCDLDQQSIVHIVQRPWRK	231 ± 72	
